The values below come from patent publication US9809653B2, “Anti-LAMP1 antibodies and antibody drug conjugates, and uses thereof” (SANOFI, priority 2012, dated 2017).

Experiment [1] addresses T1, Alascan LAMP1 transmembrane proteins (hLAMP1_ΔGYQTI mutants) (Homo sapiens, UniProt P11279, I149A).
T1 construct: expressed in transfected cells; host or cells: HEK293 (293-F), transient transfection
T1 sequence (P11279 with tags, fused parts or gaps I149A): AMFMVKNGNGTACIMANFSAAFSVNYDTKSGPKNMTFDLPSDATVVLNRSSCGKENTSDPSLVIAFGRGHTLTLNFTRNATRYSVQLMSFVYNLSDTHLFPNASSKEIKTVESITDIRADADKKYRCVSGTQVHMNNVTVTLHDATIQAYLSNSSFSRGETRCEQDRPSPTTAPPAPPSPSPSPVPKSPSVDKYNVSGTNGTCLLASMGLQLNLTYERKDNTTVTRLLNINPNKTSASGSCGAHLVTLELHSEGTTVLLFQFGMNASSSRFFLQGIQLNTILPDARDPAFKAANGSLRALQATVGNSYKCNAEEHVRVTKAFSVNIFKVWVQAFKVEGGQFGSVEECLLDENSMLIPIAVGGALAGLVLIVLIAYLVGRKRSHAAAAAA
Nature of the experiment: Ala scan of LAMP1 transmembrane proteins, flow cytometry. It is filed as binding. The following applies: pXL6070, I149A in hLAMP1_ΔGYQTI; loss = decrease of more than 50% of the mean fluorescence. An excerpt: Individual residues identified in example 6.5 and not involved in β-strand structure have been individually replaced by an alanine residue in the LAMP1 sequence derived from hLAMP1_ΔGYQTI and encoded in plasmid pXL5626 (example 6.4). A total of 21 plasmids were engineered from pXL5626 (see Table 19) and used to assay LAMP1 expression at the cell membrane of HEK293 cells after transient transfection. Two days post transfection cells were processed, analyzed by flow cytometry (Guava® easyCyte™ 8HT) as mentioned in example 4.7, and the mean fluorescence was recorded. This fluorescence represents a semi-quantitative assessment of binding. Loss of binding is reported on Table 19 when there is a decrease of more than 50% of the mean fluorescence compared to the control protein encoded from pXL5626.
In general terms: A flow cytometer gives signals particle by particle.

The target in experiment [2] is T2, LAMP1 in human tumoral and non-tumoral tissues (Homo sapiens, UniProt P11279).
T2 construct: from tissue; host or cells: human tumoral and non-tumoral tissue sections and PDX tumour sections (frozen-OCT, AFA, FFPE)
T2 sequence (P11279 29-417): T1 sequence (P11279 with tags, fused parts or gaps I149A) with A121I, A385G, A386Y, A387Q, A388T, A389I
The experiment is described as follows: IHC on frozen-OCT / AFA human tumoral and non-tumoral tissues. The following applies: CR-LRB-010P, human non-tumoral colon and skin. On the procedure: Individual hybridoma supernatants raised against tumor tissue CR-LRB-010P were screened by IHC on a macroarray slide containing frozen sections of immunizing tumor (CR-LRB-010P), human non-tumoral colon and human non-tumoral skin. Frozen-OCT (from Optimal Cutting Temperature) specimens of non-tumoral colon and skin were obtained from surgical cases (commercial sources such as Asterand, US Biomax, Strasbourg Hospital). The automated immunostaining was performed unsing Ventana Discovery and Discovery XT automated systems (Ventana Medical Systems, Inc, USA).
Frozen 10 μm cryostat sections were incubated with IgG culture supernatants as primary antibody (unknown concentration, dilution ⅓ in Phosphate Buffer Saline, PBS) for 40 min at 37° C. Culture medium was used as negative control. A postfixation step with glutaraldehyde (0.05% in NaCl 0.9% w/v) for 4 min was done. The secondary antibody Affinipure rabbit anti-mouse IgG (315-005_008, Jackson Immunosearch Laboratories, Inc. USA) was used at 4.8 μg/mL and incubated for 12 min at 37° C. Immunostaining was done with UltraMap Red chromogenic detection kit according to manufacturers recommendations for 8 min. Cryostat sections were subsequently couterstaining with hematoxylin II (790-2208, Ventana Medical Systems, Inc USA) and bluing for 4 min (760-2037). […]
Sections immunostained with mAbs were analyzed by microscope (Nikon Eclipse E400). […]

Positions count from the first letter of the chain named.

B1: MAb1: murine monoclonal anti-LAMP1 antibody, VH SEQ ID NO: 1, VL SEQ ID NO: 5 (antibody, V domains shown)
VH: QVQLQQSGAELVKPGASVKMSCKASGYIFTNYNIHWVKKSPGQGLEWIGAIYPGNGDAPYSQKFKDKATLTADKSSSTTYMQLSRLTSEDSAVYYCVRANWDVAFAYWGQGTLVSVSA
VL: DIQMTQSPPSLSASLGGKVTITCKASQDIDRYMAWYQDKPGKGPRLLIHDTSTLQPGIPSRFSGSGSGRDYSFSISNLEPEDIATYYCLQYDNLWTFGGGTKLEIK
modifications: Antibody Fragment; antibody fragment
On to B1, for which, in experiment [1], the “Binding to mAb, Alascan” value is listed as “Binding loss”. Also, the “IHC reactivity on frozen sections” value in experiment [2] is “showed evidence of tumor-associated reactivity”.
